Legend:
HCMV = test: Virus neutralization, summary statements across cell types and strains; assay type: cell-based, Human cytomegalovirus; details: MRC5; TB40/E, AD169R, TR, Towne
Experimental: AD169R^BADrUL131, TB40E, TR, or Towne was pre-incubated with monoclonal antibodies (starting dilution of 100 μg/mL antibody) was diluted using 5 fold dilutions to achieve a final range of 50-0.016 μg/mL antibody after addition to 25 μL of media containing virus; final MOI 0.2) and incubated at 4° C. for 1 hr before the inoculum was added to the appropriate cell types (ARPE-19, HTR-svNeo, MRC5, or NHDF cells at 10,000 cells per well) for 2 hrs at 37° C., 5% CO2. Following infection, the inoculum was removed and replaced with 100 μL complete DMEM/F-12 media before an overnight incubation at 37° C., 5% CO2.
Cells were fixed using 4% paraformaldehyde (PFA) for 20 minutes at room temp. Cells were then permeabilized using 0.3% Triton X-100 (Thermo Fisher, #HFH10) in PBS and stained with an affinity-purified, polyclonal rabbit anti-IE1-1/2 (0.7 ng/ml) primary and an anti-rabbit Alexa Fluor 647 (1:1000) secondary. To quantify total cells per well, Hoechst (Molecular Probes, #H3570) was diluted 1:100,000 in PBS and incubated with cells for 20 minutes at room temp. Virus neutralization was quantified using a Celigo cytometer (Nexelcom Bioscience). Percent infection was calculated using ((#IE1-1+)/(#Hoechst+))*100 events per well and normalized to the percent infection when an irrelevant, non-neutralizing, or no antibody was used.
The student's unpaired, two tailed t tests were performed using the GraphPad Prism software (La Jolla, CA). An asterisk identifies statistical significance of P<0.05 or less.

[1] = system: recombinant HCMV pentamer (strain VR1814) consisting of gH, gL, UL128, UL130 and UL131A; test: Biolayer interferometry (Octet RED) KD determination; assay type: binding, Human cytomegalovirus
Experimental: Biolayer interferometry assays were performed using the Octet RED instrument (ForteBio, Inc.) to determine the association (kon) and dissociation (kdis) constants for each antibody. Purified monoclonal antibody was loaded onto the anti-mouse Fc IgG capture (AMC) biosensors using 5-fold dilutions (50-0.016 μg/mL in PBS) for 10 minutes. To determine the kon, the sensors were exposed to the recombinant HCMV pentamer (strain VR1814) consisting of gH, gL, UL128, UL130 and UL131A (Native Antigen, CMV-PENT-100) at a constant concentration of 100 μg/mL in PBS for 3 minutes. To determine the kdis, dissociation was measured over the course of 3 minutes while the sensors were in PBS buffer. KD values were calculated as a ratio of […].
To examine this further, 293 Expi cells were transfected with wildtype gH, wildtype gL, cotransfected with gH and gL (gH+gL), transfected with a single plasmid expressing both gH and gL (gH/gL) or co-transfected a variety of gH mutants and gL. Three days post transfection the cells were harvested and stained with unlabeled primary at 0.5 μg/mL using the antibodies indicated. Transfection efficiency was determined by measuring GFP expression on day 3 and binding was determined by percent Alexa Fluor 647 positive cells using a conjugated secondary. […] The binding profile for 1G9 is most similar to 10F8. Although the ratios of gH, gL and gO plasmid were 1:1:1 it is not certain how efficiently the trimer was assembled following transfection. […] To discern minute differences in antibody binding biolayer interferometry was used, immobilizing each of the purified monoclonal antibodies (50-0.016 μg/mL) onto anti-mouse IgG Fc capture (AMC) biosensors and exposing the sensors to recombinant pentamer (100 μg/mL).

TB40/E UL32-eGFP virus = test: Virus attachment assay on ARPE-19 cells; assay type: cell-based, Human cytomegalovirus; details: 10 μg/mL, 0 or 120 minutes
Experimental: ARPE-19 cells were plated in glass bottom 12 well plates the day before infection. […] Infection occurred at 37° C. for 0-2 hrs before cells were washed using a citrate wash buffer (pH 3.2) for two minutes at RT. Cells were then washed with PBS and fixed in 4% PFA for 20 minutes at RT before being stained with Hoechst. Plates were read using a Cytation 3 Cell Imaging Multi-Mode Reader (BioTek, Winooski, VT) and images were acquired using brightfield and the 405 and 488 nm lasers.
To visualize HCMV virion attachment and entry, a recombinant HCMV strain was used that expresses eGFP fused to the C terminus of the tegument protein pUL32. The tegument protein is tightly associated with the capsid and allows for visualization of virus entry by immunofluorescence. […] Cells were incubated with the virus/antibody for either 0 or 120 minutes before being washed with citrate buffer (pH 3.2) for two minutes and fixed with PFA.

HCMV AD169R [2] = test: FFU assay in ARPE-19 cells in combination with ganciclovir; assay type: cell-based, Human cytomegalovirus; details: combined with ganciclovir (2.5 μM); antibody 10 μg/mL; Day 12
Experimental: Relative number of plaques present 12 dpi in ARPE-19 cells infected with AD169R. Infection was performed in the presence of antibody at three different concentrations +/−ganciclovir (2.5 μM). On day 12 post infection GFP images were taken and the plaque number was calculated relative to virus alone controls on each plate. M2E10 and CytoGam® were used as negative and positive controls respectively. Each condition was done in triplicate and 10,000 μm^2 was used as a cutoff for plaque area.
ARPE-19 or NHDF cells were plates at 50,000 cells per well in a 24 well and infected the following day. TB40/E (MOI 0.01) and AD169RBAD^rUL131 (MOI 0.1 & 0.01) was incubated with either 10 μg/mL or 0.5 μg/mL of antibody one hour prior to addition to cells. Following a 2 hr incubation at 37° C., 5% CO2 the inoculum was removed, and cells were overlaid with 1% low melt temperature sea agarose overlay. The overlay was allowed to solidify at room temp and then 500 μL of media was added before cells were put back into the incubator. […]
To test efficacy of the gH antibodies in combination with ganciclovir, the FFU assay was performed in ARPE-19 cells. […] M2E10 and CytoGam® were used as negative and positive controls respectively and the relative number of plaques was calculated based on cells which received virus alone without any antibody (black bar for each graph). […]

HCMV AD169R [3] = test: Neutralization by fully human versus chimeric antibody versions; assay type: cell-based, Human cytomegalovirus; details: fully human (hu) version, human IgG1 Fc
Experimental: Increasing concentrations of monoclonal antibodies (0.016-50 μg/mL) were incubated with AD169R (MOI 0.2) to assess neutralizing capacity. Percent infection was quantified using GFP expression at 18 hpi and normalized based on infection with virus alone (no antibody). CMV hyperimmune globulin (CytoGam®) was used as a control (trace on the upper right in FIGS. 8A, 8B, 8C, and 8D). FIG. 8A. […] FIG. 8B. Fully human (hu, comprising human variable and human constant regions) and chimeric (ms, comprising human variable and murine constant regions) versions of 9A12. FIG. 8C. Fully human (hu, comprising human variable and human constant regions) and chimeric (ms, comprising human variable and murine constant regions) versions of 13G1. FIG. 8D. Fully human (hu, comprising human variable and human constant regions) and chimeric (ms, comprising human variable and murine constant regions) versions of 14E1.
For this, the mouse Fc region of these mAbs was replaced with the human IgG1 Fc region.

B1: 15G11: anti-HCMV gH/gL monoclonal antibody, fusion 1; VH SEQ ID NO:52, VL SEQ ID NO:53; chimeric and fully human IgG1 versions (antibody, V domains shown)
VH: QVQLQESGPGLVKPSQTLSLTCTVSGGSISSGYYYWNWIRQHPGKGLECIGYIYYSGTTYYNPSLKSRLFISVDTSKNQFSLKLRSVTAADTAVYYCARGGLGAFDIWGQGTMVTVSS
VL: EIVLTQSPGTLSLSPGERATLSCRASQSVSSSYLAWYQQKPGQAPRLLIYGASSRAPGIPDRFSGTGSGTDFTLTISRLEPEDFAVYYCQQYGISPLTFGGGTKVEIK
modifications: IgG1 constant regions
notes: anti-HCMV gH/gL monoclonal antibody, fusion 1; chimeric and fully human IgG1 versions
Question: With B1 as the molecule, how does the “neutralization of infection across all strains” value (HCMV) read?
Answer: consistently neutralized infection

Question: What about the “kdis” value ([1]; dissociation 3 minutes in PBS) of the same molecule?
Answer: 8.69e-05 s⁻¹

Question: And the “rank of binding constant within the panel” value ([1]; recombinant pentamer)?
Answer: strongest

Question: What about the “number of virions bound to the cells” value (TB40/E UL32-eGFP virus) of the same molecule?
Answer: did not significantly change

Question: And the reduction in plaques (HCMV AD169R [2])?
Answer: 95%

Question: What about the “IC50 of infection, version with human constant regions” value (HCMV AD169R [3]) of the same molecule?
Answer: 0.37 µg/mL

Reference: US20250129140A1, “ANTI-HCMV ANTIBODIES AND ANTIGEN-BINDING FRAGMENTS THEREOF” (ICAHN SCHOOL OF MEDICINE AT MOUNT SINAI, priority 2021, published 2025)
